Data: the supplement of paper PMC9732359
± gives the uncertainty stated by the source.

Test: protein stability index of a GFP-peptide fusion (yeast GPS) (PSI 1-4); higher = more stable; sorted into four equal gates, so the index is relative within each strain
Summary of the method: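 Tiled 17-residue peptides from yeast proteins were fused downstream of GFP on a plasmid that also expresses Cherry, and the pooled library was carried in yeast. Mid-log cultures grown in leucine-free medium were sorted into four equal gates by GFP/Cherry fluorescence ratio. Plasmids from each gate were PCR-amplified and Illumina-sequenced, and reads were assigned to strains by barcodes. Each peptide's protein stability index is the sum, over gates, of the gate's read frequency multiplied by its gate number.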

| Sequence | protein stability index (doa10∆) | protein stability index (pdr5∆) | protein stability index (san1∆) | protein stability index (ubr1∆) |
| --- | --- | --- | --- | --- |
| KLTDEQSSLDVAGLEDK [SIR3] | 2.68 ± 0.083 | 2.85 ± 0.13 | 2.75 ± 0.083 | 3.1 ± 0.062 |
| GGDSDANGTFMDFGVDP [RPN10] |  |  | 3.23 ± 0.13 | 2.96 ± 0.25 |
| LPNEAGRLEIFKIHTAK [RPT4] | 2.6 ± 0.16 | 3.07 ± 0.16 | 2.92 ± 0.19 | 2.66 ± 0.11 |
| ETITTKRVPNPNFLGNC [SWP82] | 2.68 ± 0.054 | 2.58 ± 0.047 | 2.18 ± 0.05 | 2.32 ± 0.048 |
| AKTELNEVSLAIKKSSM [SMC2] | 3.03 ± 0.06 | 3.12 ± 0.087 | 3.04 ± 0.11 | 2.96 ± 0.053 |
| EHGYQSRGFEVMYNGHT [RPB2] | 2.92 ± 0.15 | 2.62 ± 0.18 | 2.88 ± 0.15 | 2.61 ± 0.19 |
| FPFVLKVDNDLRIELQS [SRB8] | 2.98 ± 0.12 | 3.05 ± 0.1 | 2.61 ± 0.098 | 3.31 ± 0.14 |
| VLRLATNKGPLAQIWLA [MCD1] | 1.93 ± 0.11 | 1.31 ± 0.052 | 1.51 ± 0.15 | 1.17 ± 0.055 |
| NLQQDKTNFQDVILDYQ [REC8] | 3.07 ± 0.069 | 3.19 ± 0.05 | 3.4 ± 0.071 | 3.12 ± 0.041 |
| DVSPLRRVNQAIALLTI [RPS5] | 2.07 ± 0.065 | 2.05 ± 0.077 | 1.85 ± 0.15 | 1.47 ± 0.055 |
| LGLKLACLGNDGILRLY [YGL100W/SEH1] | 1.78 ± 0.056 | 1.75 ± 0.05 | 1.86 ± 0.057 | 1.72 ± 0.034 |
| QSTPQPDDMVEINSVGN [ITC1] | 3.2 ± 0.11 | 3.42 ± 0.043 | 3.04 ± 0.13 | 3.18 ± 0.075 |
| VITPHFITNVQSISQNS [SWI1] | 1.85 ± 0.11 | 2.45 ± 0.11 | 2.2 ± 0.14 | 1.73 ± 0.073 |
| ATSKTSEMLAKYSDILL [CDC53] | 3.11 ± 0.091 | 3.18 ± 0.099 | 2.99 ± 0.1 | 3.07 ± 0.048 |
| SDEEESVLDEQEQYQTN [SNU114] | 3.11 ± 0.14 | 3.25 ± 0.079 | 3.25 ± 0.11 | 3.31 ± 0.069 |
| SKKIVPSPKKVAIDQDK [SIR4] | 2.73 ± 0.078 | 2.91 ± 0.066 | 2.59 ± 0.06 | 2.92 ± 0.057 |
| DQAMEKKPSPQTIPIQI [YGR119C/NUP57] |  | 2.85 ± 0.24 |  |  |
| FHKYRLKRNSWPKTRGV [RPL2A] | 2.44 ± 0.099 | 2.71 ± 0.1 | 2.83 ± 0.12 | 2.31 ± 0.091 |
| EGDELENKTKKDNDKNL [SRB4] | 3.33 ± 0.078 | 3.2 ± 0.077 | 3.23 ± 0.055 | 3.27 ± 0.077 |
| PWNDDYPFLLSFLGEAK [YML103C/NUP188] | 1.42 ± 0.047 | 1.6 ± 0.061 | 1.66 ± 0.088 | 1.98 ± 0.046 |
| VIVTDPRSDAQAIKEAS [RPS0A] | 2.88 ± 0.089 | 2.96 ± 0.08 | 2.92 ± 0.068 | 2.91 ± 0.061 |
| TKLNLHCVIEDDESEQI [RRI1] | 2.2 ± 0.29 | 3.16 ± 0.17 | 2.69 ± 0.12 | 2.65 ± 0.15 |

| Sequence | protein stability index (doa10∆) | protein stability index (pdr5∆) | protein stability index (san1∆) | protein stability index (ubr1∆) |
| --- | --- | --- | --- | --- |
| NSLKETLQDFHLIFSNA [SNF2] | 2.85 ± 0.072 | 2.82 ± 0.068 | 2.27 ± 0.13 | 2.44 ± 0.092 |
| LFQNVPEQGEEPMKQLN [YAR002W/NUP60] | 3.62 ± 0.15 | 3.32 ± 0.16 | 3.51 ± 0.12 | 3.17 ± 0.12 |
| FPVDPTTPVKLGPGIYC [RRP40] | 2.41 ± 0.058 | 2.48 ± 0.056 | 2.4 ± 0.052 | 2.2 ± 0.047 |
| ARQRGKLKKSEEKVLST [SRP68] | 3.28 ± 0.19 | 3.21 ± 0.11 | 3.33 ± 0.071 | 3.67 ± 0.21 |
| FGNIQKVVNFWLLHNGF [RPO21] | 2.26 ± 0.18 | 1.83 ± 0.099 | 1.99 ± 0.19 | 1.41 ± 0.073 |
| SILDDIKLSLKDKTKNI [SMC4] | 2.88 ± 0.06 | 2.94 ± 0.059 | 2.8 ± 0.06 | 3 ± 0.062 |
| SEKNKRQSKSSGKSNTS [ITC1] | 3.06 ± 0.094 | 3.31 ± 0.071 | 2.98 ± 0.073 | 3.16 ± 0.1 |
| SMGTMICGYTRKEGPTI [PRE2] | 3.27 ± 0.078 | 3.21 ± 0.077 | 3.33 ± 0.039 | 2.71 ± 0.069 |
| DKELRKTKFQYKFLDQN [YIL149C/MLP2] | 2.72 ± 0.084 | 2.96 ± 0.075 | 2.96 ± 0.064 | 2.98 ± 0.059 |
| DVQKSSDSSSEDEVKVE [YLR335W/NUP2] | 2.7 ± 0.098 | 2.87 ± 0.092 | 2.69 ± 0.099 | 2.31 ± 0.044 |
| RTQPWSIMPDLYFYRDP [RPS0A] | 2.55 ± 0.051 | 2.85 ± 0.056 | 2.85 ± 0.043 | 2.6 ± 0.055 |
| LSKVSLLTPDIGAVYSG [PRE8] | 1.68 ± 0.055 | 1.99 ± 0.073 | 1.73 ± 0.09 | 2.07 ± 0.071 |
| LALGCHFQDQKNKKIEV [POP7] | 2.65 ± 0.18 | 2.97 ± 0.16 | 2.92 ± 0.12 | 2.29 ± 0.11 |
| LSKVAALSGNEGDASPF [RPB2] | 1.91 ± 0.046 | 2.79 ± 0.052 | 2.15 ± 0.083 | 2.59 ± 0.071 |
| RVLQLLAVIMDNIGEID [YCG1] | 1.93 ± 0.073 | 1.63 ± 0.067 | 1.46 ± 0.17 | 1.52 ± 0.046 |
| LHVVITLLREVVFTRLV [CSN12] | 1.26 ± 0.052 | 1.26 ± 0.047 | 1.14 ± 0.14 | 1.37 ± 0.083 |
| LATLLGHNDWVSQVRVV [ASC1] | 1.94 ± 0.085 | 2.37 ± 0.082 | 1.89 ± 0.1 | 1.8 ± 0.047 |
| CEAAVEISKKDFVRKGG [SIR3] | 3.19 ± 0.11 | 2.9 ± 0.065 | 3.22 ± 0.068 | 3.25 ± 0.064 |
| SSEQDYSTLKELLEYSD [YCG1] | 2.92 ± 0.082 | 2.75 ± 0.088 | 3.15 ± 0.068 | 3.15 ± 0.086 |
| KSLGLKLPLSVINVSAQ [RPS17A] | 1.35 ± 0.052 | 1.36 ± 0.048 | 1.41 ± 0.13 | 1.37 ± 0.073 |
| KRLSAALSKFLTHPKYL [YML103C/NUP188] | 2.48 ± 0.072 | 2.25 ± 0.066 | 2.84 ± 0.07 | 2.91 ± 0.065 |
| MAATATDKIGRSVPAPG [FAS2] | 2.82 ± 0.081 | 3 ± 0.076 | 3.04 ± 0.073 | 3.01 ± 0.053 |
